From the supplement of paper PMC9112550, “Optimization of the antimicrobial peptide Bac7 by deep mutational scanning” (BMC Biology, 2022)

System: Escherichia coli TOP10
Assay: shrunken log2 fold change of peptide-encoding DNA abundance (4.5 h post-induction vs induction); higher = less antimicrobial activity (less host growth inhibition)
Conditions: time post-induction: 4.5 h; library: site-saturation at positions 5, 18, 19, 20
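Also: peptides expressed intracellularly from a pBAD plasmid library in pooled LB shake-flask culture, induced with 0.3% L-arabinose, DNA abundance read by NGS, three biological replicates, DESeq2 with apeglm shrinkage.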

RRIRWRPPRLPRPRPRPVNRPRP
shrunken log2 fold change: -0.00204

RRIRWRPPRLPRPRPRPVNYPRP
shrunken log2 fold change: -0.122

RRIRWRPPRLPRPRPRPVPCPRP
shrunken log2 fold change: -0.00353

RRIRWRPPRLPRPRPRPVQLPRP
shrunken log2 fold change: 0.034

RRIRWRPPRLPRPRPRPVQPPRP
shrunken log2 fold change: 0.0708

RRIRWRPPRLPRPRPRPVQRPRP
shrunken log2 fold change: 0.257

RRIRWRPPRLPRPRPRPVRSPRP
shrunken log2 fold change: 0.239

RRIRWRPPRLPRPRPRPVSYPRP
shrunken log2 fold change: -0.131

RRIRWRPPRLPRPRPRPVTNPRP
shrunken log2 fold change: 0.266

RRIRWRPPRLPRPRPRPVVLPRP
shrunken log2 fold change: -0.0385

RRIRWRPPRLPRPRPRPWAVPRP
shrunken log2 fold change: 0.0624

RRIRWRPPRLPRPRPRPWDIPRP
shrunken log2 fold change: -0.309

RRIRWRPPRLPRPRPRPWDNPRP
shrunken log2 fold change: -0.00804

RRIRWRPPRLPRPRPRPWFEPRP
shrunken log2 fold change: -0.0354

RRIRWRPPRLPRPRPRPWKNPRP
shrunken log2 fold change: 0.0346

RRIRWRPPRLPRPRPRPWLCPRP
shrunken log2 fold change: -0.0206

RRIRWRPPRLPRPRPRPWLSPRP
shrunken log2 fold change: -0.0459

RRIRWRPPRLPRPRPRPWMMPRP
shrunken log2 fold change: 0.119

RRIRWRPPRLPRPRPRPWMTPRP
shrunken log2 fold change: 0.333

RRIRWRPPRLPRPRPRPWNCPRP
shrunken log2 fold change: -0.116

RRIRWRPPRLPRPRPRPWNFPRP
shrunken log2 fold change: -0.188

RRIRWRPPRLPRPRPRPWREPRP
shrunken log2 fold change: -0.0969

RRIRWRPPRLPRPRPRPWTAPRP
shrunken log2 fold change: 0.306

RRIRWRPPRLPRPRPRPWVRPRP
shrunken log2 fold change: -0.172

RRIRWRPPRLPRPRPRPWWFPRP
shrunken log2 fold change: 0.0217

RRIRWRPPRLPRPRPRPWWLPRP
shrunken log2 fold change: 0.162

RRIRWRPPRLPRPRPRPWYCPRP
shrunken log2 fold change: 0.0408

RRIRWRPPRLPRPRPRPYAPPRP
shrunken log2 fold change: -0.232

RRIRWRPPRLPRPRPRPYCWPRP
shrunken log2 fold change: -0.127

RRIRWRPPRLPRPRPRPYFAPRP
shrunken log2 fold change: -0.216

RRIRWRPPRLPRPRPRPYFLPRP
shrunken log2 fold change: -0.757

RRIRWRPPRLPRPRPRPYFYPRP
shrunken log2 fold change: -0.679

RRIRWRPPRLPRPRPRPYGHPRP
shrunken log2 fold change: -0.478

RRIRWRPPRLPRPRPRPYHLPRP
shrunken log2 fold change: -0.146

RRIRWRPPRLPRPRPRPYHMPRP
shrunken log2 fold change: -0.591

RRIRWRPPRLPRPRPRPYHQPRP
shrunken log2 fold change: -0.0735

RRIRWRPPRLPRPRPRPYHRPRP
shrunken log2 fold change: -0.201

RRIRWRPPRLPRPRPRPYIGPRP
shrunken log2 fold change: -0.127

RRIRWRPPRLPRPRPRPYIIPRP
shrunken log2 fold change: -1.11

RRIRWRPPRLPRPRPRPYIVPRP
shrunken log2 fold change: -0.727

RRIRWRPPRLPRPRPRPYKGPRP
shrunken log2 fold change: -0.0487

RRIRWRPPRLPRPRPRPYKSPRP
shrunken log2 fold change: -0.144

RRIRWRPPRLPRPRPRPYLDPRP
shrunken log2 fold change: -0.33

RRIRWRPPRLPRPRPRPYLNPRP
shrunken log2 fold change: -0.777

RRIRWRPPRLPRPRPRPYNGPRP
shrunken log2 fold change: -0.668

RRIRWRPPRLPRPRPRPYNIPRP
shrunken log2 fold change: -0.243

RRIRWRPPRLPRPRPRPYPDPRP
shrunken log2 fold change: -0.106

RRIRWRPPRLPRPRPRPYPVPRP
shrunken log2 fold change: 3.67

RRIRWRPPRLPRPRPRPYQNPRP
shrunken log2 fold change: -0.847

RRIRWRPPRLPRPRPRPYQWPRP
shrunken log2 fold change: -0.0641

RRIRWRPPRLPRPRPRPYRTPRP
shrunken log2 fold change: 0.00941

RRIRWRPPRLPRPRPRPYSEPRP
shrunken log2 fold change: -0.0145

RRIRWRPPRLPRPRPRPYSNPRP
shrunken log2 fold change: -0.2

RRIRWRPPRLPRPRPRPYSPPRP
shrunken log2 fold change: -1.1

RRIRWRPPRLPRPRPRPYSTPRP
shrunken log2 fold change: -0.225

RRIRWRPPRLPRPRPRPYTFPRP
shrunken log2 fold change: 0.0563

RRIRWRPPRLPRPRPRPYTGPRP
shrunken log2 fold change: -0.135

RRIRWRPPRLPRPRPRPYTHPRP
shrunken log2 fold change: -0.536

RRIRWRPPRLPRPRPRPYVNPRP
shrunken log2 fold change: -0.355

RRIRWRPPRLPRPRPRPYWMPRP
shrunken log2 fold change: -0.265

RRIRYRPPRLPRPRPRPAACPRP
shrunken log2 fold change: 0.115

RRIRYRPPRLPRPRPRPAAFPRP
shrunken log2 fold change: -0.757

RRIRYRPPRLPRPRPRPAAPPRP
shrunken log2 fold change: 0.726

RRIRYRPPRLPRPRPRPAAYPRP
shrunken log2 fold change: -0.387

RRIRYRPPRLPRPRPRPACCPRP
shrunken log2 fold change: -0.405

RRIRYRPPRLPRPRPRPACHPRP
shrunken log2 fold change: -0.453

RRIRYRPPRLPRPRPRPACLPRP
shrunken log2 fold change: -0.211

RRIRYRPPRLPRPRPRPAELPRP
shrunken log2 fold change: -0.187

RRIRYRPPRLPRPRPRPAESPRP
shrunken log2 fold change: -0.00136

RRIRYRPPRLPRPRPRPAFMPRP
shrunken log2 fold change: -0.658

RRIRYRPPRLPRPRPRPAFPPRP
shrunken log2 fold change: -0.139

RRIRYRPPRLPRPRPRPAFQPRP
shrunken log2 fold change: -0.00804

RRIRYRPPRLPRPRPRPAHKPRP
shrunken log2 fold change: 0.00824

RRIRYRPPRLPRPRPRPAIGPRP
shrunken log2 fold change: -0.105

RRIRYRPPRLPRPRPRPAKHPRP
shrunken log2 fold change: -0.912

RRIRYRPPRLPRPRPRPAMGPRP
shrunken log2 fold change: -0.031

RRIRYRPPRLPRPRPRPAMYPRP
shrunken log2 fold change: -1.14

RRIRYRPPRLPRPRPRPANCPRP
shrunken log2 fold change: -0.225

RRIRYRPPRLPRPRPRPANRPRP
shrunken log2 fold change: 0.0126

RRIRYRPPRLPRPRPRPAPTPRP
shrunken log2 fold change: 0.169

RRIRYRPPRLPRPRPRPAQNPRP
shrunken log2 fold change: -0.0465

RRIRYRPPRLPRPRPRPARTPRP
shrunken log2 fold change: -0.298

RRIRYRPPRLPRPRPRPASNPRP
shrunken log2 fold change: -0.0548

RRIRYRPPRLPRPRPRPASQPRP
shrunken log2 fold change: -0.08

RRIRYRPPRLPRPRPRPATWPRP
shrunken log2 fold change: -0.154

RRIRYRPPRLPRPRPRPAVTPRP
shrunken log2 fold change: -3.6

RRIRYRPPRLPRPRPRPAVWPRP
shrunken log2 fold change: 0.11

RRIRYRPPRLPRPRPRPAWAPRP
shrunken log2 fold change: 0.253

RRIRYRPPRLPRPRPRPAWCPRP
shrunken log2 fold change: -0.0756

RRIRYRPPRLPRPRPRPAWIPRP
shrunken log2 fold change: -0.259

RRIRYRPPRLPRPRPRPAWMPRP
shrunken log2 fold change: -0.0583

RRIRYRPPRLPRPRPRPAWQPRP
shrunken log2 fold change: 0.0499

RRIRYRPPRLPRPRPRPAYNPRP
shrunken log2 fold change: -0.638

RRIRYRPPRLPRPRPRPAYSPRP
shrunken log2 fold change: -0.267

RRIRYRPPRLPRPRPRPCAGPRP
shrunken log2 fold change: -0.0602

RRIRYRPPRLPRPRPRPCCYPRP
shrunken log2 fold change: -0.363

RRIRYRPPRLPRPRPRPCFAPRP
shrunken log2 fold change: -0.521

RRIRYRPPRLPRPRPRPCFLPRP
shrunken log2 fold change: -1

RRIRYRPPRLPRPRPRPCFTPRP
shrunken log2 fold change: -0.941

RRIRYRPPRLPRPRPRPCGTPRP
shrunken log2 fold change: -0.193

RRIRYRPPRLPRPRPRPCHAPRP
shrunken log2 fold change: -0.702

RRIRYRPPRLPRPRPRPCKHPRP
shrunken log2 fold change: -0.0625

RRIRYRPPRLPRPRPRPCPGPRP
shrunken log2 fold change: -0.0926

RRIRYRPPRLPRPRPRPCPTPRP
shrunken log2 fold change: -0.0225

RRIRYRPPRLPRPRPRPCTIPRP
shrunken log2 fold change: -0.118

RRIRYRPPRLPRPRPRPCTWPRP
shrunken log2 fold change: -0.303

RRIRYRPPRLPRPRPRPCVIPRP
shrunken log2 fold change: 0.0735

RRIRYRPPRLPRPRPRPCVLPRP
shrunken log2 fold change: -0.00875

RRIRYRPPRLPRPRPRPCVSPRP
shrunken log2 fold change: -0.0134

RRIRYRPPRLPRPRPRPCWIPRP
shrunken log2 fold change: -0.01

RRIRYRPPRLPRPRPRPCYTPRP
shrunken log2 fold change: -0.5

RRIRYRPPRLPRPRPRPDATPRP
shrunken log2 fold change: 0.104

RRIRYRPPRLPRPRPRPDAWPRP
shrunken log2 fold change: 0.0522

RRIRYRPPRLPRPRPRPDCRPRP
shrunken log2 fold change: -0.363

RRIRYRPPRLPRPRPRPDCYPRP
shrunken log2 fold change: -3.15

RRIRYRPPRLPRPRPRPDENPRP
shrunken log2 fold change: -0.0185

RRIRYRPPRLPRPRPRPDEQPRP
shrunken log2 fold change: -0.00172

RRIRYRPPRLPRPRPRPDFFPRP
shrunken log2 fold change: 0.373

RRIRYRPPRLPRPRPRPDHHPRP
shrunken log2 fold change: -0.0423

RRIRYRPPRLPRPRPRPDINPRP
shrunken log2 fold change: -0.162

RRIRYRPPRLPRPRPRPDKEPRP
shrunken log2 fold change: -0.478

RRIRYRPPRLPRPRPRPDKHPRP
shrunken log2 fold change: -0.692

RRIRYRPPRLPRPRPRPDNHPRP
shrunken log2 fold change: -0.135

RRIRYRPPRLPRPRPRPDRKPRP
shrunken log2 fold change: -0.157

RRIRYRPPRLPRPRPRPDVGPRP
shrunken log2 fold change: -0.273

RRIRYRPPRLPRPRPRPDVPPRP
shrunken log2 fold change: -0.0784

RRIRYRPPRLPRPRPRPDVQPRP
shrunken log2 fold change: -0.0317

RRIRYRPPRLPRPRPRPDWYPRP
shrunken log2 fold change: -0.968

RRIRYRPPRLPRPRPRPEAEPRP
shrunken log2 fold change: 0.137

RRIRYRPPRLPRPRPRPEANPRP
shrunken log2 fold change: -0.127

RRIRYRPPRLPRPRPRPECPPRP
shrunken log2 fold change: -0.00973

RRIRYRPPRLPRPRPRPEDVPRP
shrunken log2 fold change: -0.00968

RRIRYRPPRLPRPRPRPEFSPRP
shrunken log2 fold change: -0.307

RRIRYRPPRLPRPRPRPEGWPRP
shrunken log2 fold change: 0.489

RRIRYRPPRLPRPRPRPEHPPRP
shrunken log2 fold change: -0.143

RRIRYRPPRLPRPRPRPEHSPRP
shrunken log2 fold change: -0.425

RRIRYRPPRLPRPRPRPEHTPRP
shrunken log2 fold change: -0.303

RRIRYRPPRLPRPRPRPEILPRP
shrunken log2 fold change: -0.288

RRIRYRPPRLPRPRPRPEINPRP
shrunken log2 fold change: 0.0373

RRIRYRPPRLPRPRPRPEKIPRP
shrunken log2 fold change: 0.0147

RRIRYRPPRLPRPRPRPELSPRP
shrunken log2 fold change: 0.0544

RRIRYRPPRLPRPRPRPEMMPRP
shrunken log2 fold change: -0.0745

RRIRYRPPRLPRPRPRPEMSPRP
shrunken log2 fold change: -0.343

RRIRYRPPRLPRPRPRPENDPRP
shrunken log2 fold change: -0.342

RRIRYRPPRLPRPRPRPENKPRP
shrunken log2 fold change: -0.725

RRIRYRPPRLPRPRPRPENSPRP
shrunken log2 fold change: -0.0207

RRIRYRPPRLPRPRPRPENVPRP
shrunken log2 fold change: -0.00208

RRIRYRPPRLPRPRPRPEQSPRP
shrunken log2 fold change: 0.0157

RRIRYRPPRLPRPRPRPESMPRP
shrunken log2 fold change: -0.267

RRIRYRPPRLPRPRPRPETLPRP
shrunken log2 fold change: -0.0879
